The values below come from PMC9279372.

The target in the assay is DEIP1-cYFP fusion protein (Arabidopsis thaliana). Briefly: split reporter (BiFC, NanoBiT); BiFC with vector pBIFCt-2in1-CC in N. benthamiana, Agrobacterium co-infiltration with p19; protoplasts isolated three days after infiltration; YFP and RFP fluorescence by confocal microscopy; 80 protoplasts in two independent experiments for each interaction.
DEIP1-cYFP fusion protein (Arabidopsis thaliana), sequence (main, as listed by the source): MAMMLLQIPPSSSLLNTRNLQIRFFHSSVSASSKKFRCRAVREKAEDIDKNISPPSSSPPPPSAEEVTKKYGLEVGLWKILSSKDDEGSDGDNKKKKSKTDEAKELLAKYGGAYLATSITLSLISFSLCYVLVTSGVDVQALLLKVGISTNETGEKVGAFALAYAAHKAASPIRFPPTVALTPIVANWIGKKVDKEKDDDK
Turning to “DEIP1-cYFP fusion protein (natural protein)”, the percent of transfected protoplasts with YFP fluorescence amounted to 54%. Substance “PetA with the pea RBCS chloroplast transit peptide and C-terminal nYFP (from UniProt P56771 36-320)” had a percent of transfected protoplasts with YFP fluorescence of 30%. As for “PetB with the pea RBCS chloroplast transit peptide and C-terminal nYFP (from UniProt P56773 1-215)”, the percent of transfected protoplasts with YFP fluorescence was found to be 28%. “PetD with the pea RBCS chloroplast transit peptide and C-terminal nYFP (from UniProt P56774 1-160)” gave a percent of transfected protoplasts with YFP fluorescence of 17%.
